Reference: article PMC10729762, “CsrA selectively modulates sRNA-mRNA regulator outcomes”

B1: ChiX (structured_RNA)
RNA: ACACCGUCGCUUAAAGUGACGGCAUAAUAAUAAAAAAAUGAAAUUCCUCUUUGACGGGCCAAUAGCGAUAUUGGCCAUUUUUUU
B2: FnrS (structured_RNA)
RNA: GCAGGUGAAUGCAACGUCAAGCGAUGGGCGUUGCGCUCCAUAUUGUCUUACUUCCUUUUUUGAAUUACUGCAUAGCACAAUUGAUUCGUACGACGCCGACUUUGAUGAGUCGGCUUUUUUUU
B3: McaS (structured_RNA)
RNA: ACCGGCGCAGAGGAGACAAUGCCGGAUUUAAGACGCGGAUGCACUGCUGUGUGUACUGUAGAGUCUGGCGGAUGUCGACAGACUCUAUUUUUU

Target: CsrA;Hfq (Escherichia coli K-12 …, UniProt P69913;P0A6X3 1-61;1-102, |)
Assay: EMSA; 6 uM CsrA + Hfq, likely ternary complex; 10 nM denatured RNA, 0-6 uM CsrA, 0-3 uM Hfq; 1X binding buffer (10 mM Tris-HCl pH 7.5, 10 mM MgCl2, 100 mM KCl) plus CsrA dilution buffer, 11% glycerol, 20 mM
Details: protein: recombinant;recombinant; tags: ;; chain copies: 2;6; label: internal 32P-UTP

Chain of CsrA;Hfq (P69913 whole entry, chain 1 of 2): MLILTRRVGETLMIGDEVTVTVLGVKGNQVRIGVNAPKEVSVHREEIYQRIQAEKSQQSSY
Chain of CsrA;Hfq (P0A6X3 whole entry, chain 2 of 2): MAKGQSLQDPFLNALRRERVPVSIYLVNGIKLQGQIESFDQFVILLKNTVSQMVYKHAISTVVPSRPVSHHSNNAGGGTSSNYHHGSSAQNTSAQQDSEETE

| Binder | binding result |
| --- | --- |
| B1 | binds |
| B2 | binds |
| B3 | binds |
